According to publication PMC11169542, “A probe for NIR-II imaging and multimodal analysis of early Alzheimer’s disease by targeting CTGF” (Nature Communications, 2024):
Ends that are not written are not given here.

Target: T1, CTGF (Homo sapiens, UniProt P29279)
T1 sequence (P29279 27-349): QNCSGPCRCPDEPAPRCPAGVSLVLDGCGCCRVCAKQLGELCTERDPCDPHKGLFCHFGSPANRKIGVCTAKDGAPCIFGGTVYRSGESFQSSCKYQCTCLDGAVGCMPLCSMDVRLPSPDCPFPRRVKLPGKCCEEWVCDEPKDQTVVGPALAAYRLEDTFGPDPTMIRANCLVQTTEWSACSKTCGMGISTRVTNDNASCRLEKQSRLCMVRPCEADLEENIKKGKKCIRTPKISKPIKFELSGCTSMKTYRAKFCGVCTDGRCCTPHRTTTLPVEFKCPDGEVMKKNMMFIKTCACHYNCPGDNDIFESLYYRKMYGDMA
Assay: ICP-MS of Au content in DGC-labelled human brain sections
Design: The brain tissue samples of autopsy-confirmed AD patients were obtained from the Chinese Brain Bank Center; from tissue; host or cells: postmortem human brain sections (hippocampus, cortex) of AD patients and healthy controls; ICP-MS (Au content): unit not given here
Method: The brain tissue samples of autopsy-confirmed AD patients were obtained from the Chinese Brain Bank Center (CBBC) and Human Brain Bank, Central South University Xiangya School of Medicine. First, the brain sections were air-dried for 15 min at room temperature, followed by immersion in water. 5% H2O2 was applied for 15 min at room temperature. The sections were washed three times with PBS for 5 min each time. Then, tissue repair was performed using trypsin at a temperature of 37 °C for 5 min and washed three times with PBS. We chose 10% sheep serum to block for a duration of 20 min at 37°. Primary antibodies (CTGF antibody and Aβ antibody) were added to the sections overnight at 4 °C. FITC-labeled Goat Anti-Rabbit IgG (H + L) (1: dilution 1:200, Bioss, Cat#bs-0370R-FITC) was applied and incubated at 37 °C for 20 min in darkness. Subsequent washing steps involved rinsing the sections three times with PBS, each time lasting for 5 min while avoiding exposure to light. DAPI staining was performed, taking care to store the samples away from light during the 5-min procedure. Then observed by the CLSM system. Then, we chose the optimal incubation concentration of DGC (200 μM) was used to determine the conditions using DAB Horseradish Peroxidase Color Development Kit. After the brain sections were co-stained by DGC (200 μM) at 4 °C overnight, a DAB chromogenic agent was added to the brain tissue sections to explore whether DGC can catalyze DAB solutions to produce insoluble brown precipitate to attach the brain tissue sections with an optical microscope. Finally, the brain tissue sections were digested with aqua regia to measure the Au content by the ICP-MS system.

With “DGC: CTGF-targeting peptide-coated gold nanocluster: one Au26 gold nanocluster coated by eight DAG cyclic peptides, NIR-II and red fluorescence (CDAGRKQKC; also: cyclic peptide, ring not given here, eight peptides on one Au26 nanocluster via Cys Au-S bonds)” the “ICP-MS (Au content)” value (AD 1, Cortex section stained with DGC) was 16.9799, the “ICP-MS (Au content)” value (AD 1, Hippocampus section stained with DGC) was 24.3713 and the “ICP-MS (Au content)” value (AD 2, Cortex section stained with DGC) was 28.448. The “ICP-MS (Au content)” value (AD 2, Hippocampus section stained with DGC) was 30.5308, the “Au Content (DGC) per cm^2 by ICP-MS” value (Case 1 (healthy control, Thal 0) brain section, section 1) was 0.1533 and the “Au Content (DGC) per cm^2 by ICP-MS” value (Case 1 (healthy control, Thal 0) brain section, section 2) was 0.3279. For the same substance, the “Au Content (DGC) per cm^2 by ICP-MS” value (Case 1 (healthy control, Thal 0) brain section, section 3) was 0.1558, the “Au Content (DGC) per cm^2 by ICP-MS” value (Case 2 (healthy control, Thal 0) brain section, section 1) was 0.09047 and the “Au Content (DGC) per cm^2 by ICP-MS” value (Case 2 (healthy control, Thal 0) brain section, section 2) was 0.265. The “Au Content (DGC) per cm^2 by ICP-MS” value (Case 2 (healthy control, Thal 0) brain section, section 3) was 0.06474, the “Au Content (DGC) per cm^2 by ICP-MS” value (Case 3 (AD, Thal 1) brain section, section 1) was 0.6218 and the “Au Content (DGC) per cm^2 by ICP-MS” value (Case 3 (AD, Thal 1) brain section, section 2) was 0.4537. For the same substance, the “Au Content (DGC) per cm^2 by ICP-MS” value (Case 3 (AD, Thal 1) brain section, section 3) was 0.399, the “Au Content (DGC) per cm^2 by ICP-MS” value (Case 4 (AD, Thal 1) brain section, section 1) was 0.5318 and the “Au Content (DGC) per cm^2 by ICP-MS” value (Case 4 (AD, Thal 1) brain section, section 2) was 0.7576. For the same substance, the “Au Content (DGC) per cm^2 by ICP-MS” value (Case 4 (AD, Thal 1) brain section, section 3) was 0.7155, the “ICP-MS (Au content)” value (HC 1, Cortex section stained with DGC) was 3.7846 and the “ICP-MS (Au content)” value (HC 1, Hippocampus section stained with DGC) was 2.83. For the same substance, the “ICP-MS (Au content)” value (HC 2, Cortex section stained with DGC) was 3.7846 and the “ICP-MS (Au content)” value (HC 2, Hippocampus section stained with DGC) was 11.6586.
